System: delta-plasminogen
Sequence (chain, as listed by the source mutant): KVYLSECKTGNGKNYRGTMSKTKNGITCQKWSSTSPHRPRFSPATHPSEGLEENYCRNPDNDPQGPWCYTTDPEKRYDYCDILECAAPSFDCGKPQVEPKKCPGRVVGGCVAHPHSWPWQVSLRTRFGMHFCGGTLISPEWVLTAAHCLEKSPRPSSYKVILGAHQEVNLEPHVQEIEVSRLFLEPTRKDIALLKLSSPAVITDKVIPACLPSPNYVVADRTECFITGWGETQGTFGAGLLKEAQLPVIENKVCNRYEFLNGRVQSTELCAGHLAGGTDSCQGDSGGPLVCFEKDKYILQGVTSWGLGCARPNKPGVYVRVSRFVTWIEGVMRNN

urokinase
conversion of one-chain delta-plasminogen into two-chain delta-plasmin (reduced SDS-PAGE): delta-plasminogen indeed can be activated by all three plasminogen activators
